The supplement of paper PMC9170038

Tested on: MS2 coat protein
Experiment: apparent KD of MS2 coat protein; designed switch direction (-1 OFF switch, 1 ON switch): 1; higher = weaker reporter binding
Summary of the method: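 Designed RNA switches with common flanks were transcribed on Illumina chips by stalled E. coli RNA polymerase and titrated with SNAP-549-labelled MS2 coat protein, from 0.7 or 1.5 nM doubling to 3 µM, in Tris-HCl pH 7.5 buffer with KCl, MgCl2, BSA, DTT, tRNA and Tween-20. Steps lasted 0.8–1.5 h (lowest) to 10–20 min (highest). Titrations ran without input, with 200 uM small-molecule ligand, or with an oligonucleotide input. Normalised cluster fluorescence was curve-fitted, and apparent KD is the per-design median over clusters.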

[1] = input ligand: microRNA oligo, concentration not stated
[2] = Eterna round: R95, input ligand: microRNA oligo, concentration not stated
[3] = Eterna round: R95, input ligand: FMN 200 uM
[4] = Eterna round: R95, input ligand: none

| Sequence | apparent KD of MS2 coat protein (input ligand: FMN 200 uM) [µM] | apparent KD of MS2 coat protein [1] [µM] | apparent KD of MS2 coat protein (input ligand: none) [µM] | apparent KD of MS2 coat protein [2] [µM] | apparent KD of MS2 coat protein [3] [µM] | apparent KD of MS2 coat protein [4] [µM] |
| --- | --- | --- | --- | --- | --- | --- |
| CCCGUCUACAGAAAGGUAGAUGGGAAUGUACAUGAGGAUCACCCAUGUUAAUAUGAGUUUGUUGAUAAUUAUGAAUU [Modxample 50 - Jieux - Sensor for bsa-mir-208a] (Eterna round: R96, puzzle: Sensor for hsa-mir-208a) | 0.0197 | 0.0189 | 0.0244 | – | – | – |
| CCCUGAGGUAGCCCACAGGGACAUGAGGAUCACCCAUGUACACAGGAUAUCGAGGGCUCCGCCUUCGAGAAGGGUGAUCAAACU [Geditedi] (Eterna round: R96, puzzle: Same State NG 3) | 0.148 | 0.0182 | 0.0534 | – | – | – |
| CCGAGUGGCGUACAGGAUAUGUUGCAUGGAACAUGAGGAUCACCCAUGUAUUUGCUCCCGCAUACGCAGAAGGGUGCGUCCUGGG [Arraquorso] (Eterna round: R96, puzzle: Same State 2) | 0.025 | 0.0314 | 0.0469 | – | – | – |
| CCGAUAAUUGGAGGAUAUGGAGCCUUAUUGGCUCCAGAAGGCUAUAAACAUGAGGAUCACCCAUGUCGGCGGUCUAAUGACCGA [Eli NG1ss - 50] (Eterna round: R96, puzzle: Same State NG 1) | 0.028 | 0.0366 | 0.0604 | – | – | – |
| CCGAUGUGGGUACAGGAUAUGUGGGCCUCCACAUGAGGAUCACCCAUGUCGGAGGCAAAGCGGCUACAGAAGGGUGCGAGCUCGA [Xeanza] (puzzle: Same State 2) | – | – | – | 0.00928 | – | – |
| CCGAUUUAUGGAGGAUAUGGAGCCUUAUUGGCUCCAGAAGGCUAAUAACAUGAGGAUCACCCAUGUCGGCGGUCUAAUGACCGA [Eli NG1ss - 52] (Eterna round: R96, puzzle: Same State NG 1) | 0.0392 | 0.0475 | 0.0916 | – | – | – |
| CCGGUUUAUGGAGGAUAUGGAGCCUUAUUGGCUCCAGAAGGCUAAACAUGAGGAUCACCCAUGUUACCGGCGGUCAAUAGACCG [Eli NG1ss - 60] (Eterna round: R96, puzzle: Same State NG 1) | 0.0118 | 0.0205 | 0.0231 | – | – | – |
| CCUUGUAGCGGAGGAUAUGGGCCUCACUCAGUCAAAGAGUGAGAAACAUGAGGAUCACCCAUGUCCCAGAAGGCCGCUGCUUGG [Estiveveza] (Eterna round: R96, puzzle: Same State NG 2) | – | 0.0123 | – | – | – | – |
| CGAUGAUACUUAGGAAAGAGAGUAGAGGAACAUGAGGAUCACCCAUGUAUGAGCUUUUUGCUCGUCAUGAACAGGAA [JR_SHM208a_Sub008] (puzzle: Sensor for hsa-mir-208a) | – | – | – | 0.0624 | 0.0886 | 0.168 |
| CGGCGCUGUCGAGAGGAUAUGCGGUGAUGGACAUGAGGAUCACCCAUGUUAGCGAUAGCAUUACGGUAGAAGGCUCUAUAGUUGC [Soteed Omei mod 9] (puzzle: Same State 2) | – | – | – | 0.248 | – | – |
| CGGCUUGUACAUGAGGAUCACCCAUGUAUGUACAAGUUUUUGCUCGUCUUAUAAAUACGAUCUACCGAAAGGUAGAU [BIOPHYS241_ElaineNg_1] (puzzle: Sensor for hsa-mir-208a version 2) | – | – | – | 0.0187 | 0.276 | 0.236 |
| CGGGAGAUCGUAGGAUAUCUAGGAUAUGAACGAGGAUCACCCGAGCAGCAUCAGCGCAUCAGAGGAGAGAAGGACGAUCAUGCG [pwkr ssNG2 2F5 2FMN.6] (Eterna round: R96, puzzle: Same State NG 2) | 0.751 | 0.0317 | 0.741 | – | – | – |
| CGGGUACAUGAGGAUCACCCAUGUGGGAGGGAUGCAGGAUAUGUGGGAAAAGGGUAUGUAACAGAAGGGCAAGGAG [JR_SS!_Sub014] (puzzle: Same State 1) | – | – | – | 0.0318 | 0.0308 | 0.0451 |
| CGUAGGUAGCUGGAGGAUAUUCGAGUGGUAACAUGAGGAUCACCCAUGUGGAGAGAGGUACAUGAGGAGAAGGCUAGCUGCCUGC [JL-ss2-3.14 JL mod] (puzzle: Same State 2) | – | – | – | 0.022 | 0.0134 | 0.0271 |
| CGUAGGUGGCUGGAGGAUAUUCGAGUGGUAACAUGAGGAUCACCCAUGUGUCGCGCGGUACAUGAGGAGAAGGCUAGCGGCCUGC (puzzle: Same State 2) | – | – | – | 0.119 | 0.0208 | 0.25 |
| CGUCCAGCCUGAGCUGGACAAAAGCAUGUACAUGAGGAUCACCCAUGUUCAUGUACAAGCUUUUUGCUCGUCUUAUC [salish99_208a_r3_055] (puzzle: Sensor for hsa-mir-208a) | – | – | – | 0.0144 | 0.597 | 0.587 |
